Measurements published in US20240383984A1 (Genentech, published 2024).

T1: human FcRH5 protein fragment (soluble) (human, UniProt Q96RD9 16-851)
T1 construct: whole entry named; also called soluble human FcRH5; Human FcRH5 (BIACORE analyte)
T1 sequence: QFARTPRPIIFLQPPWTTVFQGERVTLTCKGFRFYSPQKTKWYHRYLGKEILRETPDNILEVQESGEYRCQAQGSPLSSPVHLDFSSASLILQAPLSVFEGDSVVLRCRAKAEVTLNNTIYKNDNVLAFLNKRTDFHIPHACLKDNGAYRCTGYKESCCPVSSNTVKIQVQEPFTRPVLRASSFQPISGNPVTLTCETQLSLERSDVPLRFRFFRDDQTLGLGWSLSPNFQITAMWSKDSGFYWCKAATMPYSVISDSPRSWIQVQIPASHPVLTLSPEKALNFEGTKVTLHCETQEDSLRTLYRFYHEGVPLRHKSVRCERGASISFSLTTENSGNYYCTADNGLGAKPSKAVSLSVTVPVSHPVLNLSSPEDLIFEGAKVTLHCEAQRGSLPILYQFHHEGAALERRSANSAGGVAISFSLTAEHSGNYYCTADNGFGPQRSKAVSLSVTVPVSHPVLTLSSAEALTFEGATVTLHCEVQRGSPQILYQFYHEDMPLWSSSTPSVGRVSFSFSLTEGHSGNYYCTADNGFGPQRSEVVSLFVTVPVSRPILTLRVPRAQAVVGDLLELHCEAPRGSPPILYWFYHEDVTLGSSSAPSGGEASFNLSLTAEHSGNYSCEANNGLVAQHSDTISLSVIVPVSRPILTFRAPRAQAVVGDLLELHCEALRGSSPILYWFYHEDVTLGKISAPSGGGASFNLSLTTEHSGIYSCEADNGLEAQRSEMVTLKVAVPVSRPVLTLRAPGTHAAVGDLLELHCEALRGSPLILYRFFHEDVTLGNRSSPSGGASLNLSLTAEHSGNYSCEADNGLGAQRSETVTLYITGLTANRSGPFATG


Target: T1, human FcRH5 protein fragment (soluble)
Assay: BIACORE, human IgG1, soluble human FcRH5

| Fold improvement over hu1G7.v1 | Kd | Fold improvement over hu1G7.v86 | Binder |
| --- | --- | --- | --- |
| 1.3 fold | 11 nM | – | 1G7.v1E (antibody, human IgG1, V domains shown, human IgG1 with the light chain of hu1G7.v1; also called E (hu1G7.v1 heavy chain V37Y)) VH: EVQLVESGPGLVKPSETLSLTCTVSGFSLTRFGVHWYRQPPGKGLEWLGVIWRGGSTDYNAAFMSRLTISKDNSKNQVSLKLSSVTAADTAVYYCSNHYYGSSDYALDNWGQGTLVTVSS VL: DIQMTQSPSSLSASVGDRVTITCKASQDVSNIVVWFQQKPGKSPKLLIYSASYRYTGVPSRFSGSGSGTDFTLTISSLQPEDFATYYCQQHYSSPYTFGQGTKVEIK |
| 10.3 fold | 1.4 nM | – | hu1G7.v86 (antibody, human IgG1, V domains shown, human IgG1) VH: EVQLVESGPGLVKPSETLSLTCTVSGFSLTRFGVHWVRQPPGKGLEWLGVIWRGGSTDYNAAFVSRLTISKDNSKNQVSLKLSSVTAADTAVYYCSNHYYGSSDYALDNWGQGTLVTVSS VL: DIQMTQSPSSLSASVGDRVTITCKASQDVSNLVVWFQQKPGKSPKLLIYSGSYRYSGVPSRFSGSGSGTDFTLTISSLQPEDFATYYCQQHYSPPYTFGQGTKVEIK |
| 1 fold | 15 nM | – | 1G7.v1K (antibody, human IgG1, V domains shown, human IgG1 with the light chain of hu1G7.v1; also called K (hu1G7.v1 heavy chain S82bD)) VH: EVQLVESGPGLVKPSETLSLTCTVSGFSLTRFGVHWVRQPPGKGLEWLGVIWRGGSTDYNAAFMSRLTISKDNSKNQVSLKLSDVTAADTAVYYCSNHYYGSSDYALDNWGQGTLVTVSS VL: DIQMTQSPSSLSASVGDRVTITCKASQDVSNIVVWFQQKPGKSPKLLIYSASYRYTGVPSRFSGSGSGTDFTLTISSLQPEDFATYYCQQHYSSPYTFGQGTKVEIK |
| 25.3 fold | 0.6 nM | 2.5 fold | hu1G7.v93 (antibody, human IgG1, V domains shown, human IgG1) VH: EVQLVESGPGLVKPSETLSLTCTVSGFSTTRFGVHWVRQPPGKGLEWLGVIWRGGSTDYNAAFVSRLTISKDNSKNQVSLKLSSVTAADTAVYYCSNHYYGSPDYALDNWGQGTLVTVSS VL: DIQMTQSPSSLSASVGDRVTITCKASQDVSNLVVWFQQKPGKAPKLLIYSGSYRYSGVPSRFSGSGSGTDFTLTISSLQPEDFATYYCQQHYSPPYTFGQGTKVEIK |
| 0.9 fold | 16.2 nM | – | 1G7.v1I (antibody, human IgG1, V domains shown, human IgG1 with the light chain of hu1G7.v1; also called I (hu1G7.v1 heavy chain S65P)) VH: EVQLVESGPGLVKPSETLSLTCTVSGFSLTRFGVHWVRQPPGKGLEWLGVIWRGGSTDYNAAFMPRLTISKDNSKNQVSLKLSSVTAADTAVYYCSNHYYGSSDYALDNWGQGTLVTVSS VL: DIQMTQSPSSLSASVGDRVTITCKASQDVSNIVVWFQQKPGKSPKLLIYSASYRYTGVPSRFSGSGSGTDFTLTISSLQPEDFATYYCQQHYSSPYTFGQGTKVEIK |
| 3 fold | 4.8 nM | – | 1G7.v1L (antibody, human IgG1, V domains shown, human IgG1 with the light chain of hu1G7.v1; also called L (hu1G7.v1 heavy chain S100P)) VH: EVQLVESGPGLVKPSETLSLTCTVSGFSLTRFGVHWVRQPPGKGLEWLGVIWRGGSTDYNAAFMSRLTISKDNSKNQVSLKLSSVTAADTAVYYCSNHYYGSPDYALDNWGQGTLVTVSS VL: DIQMTQSPSSLSASVGDRVTITCKASQDVSNIVVWFQQKPGKSPKLLIYSASYRYTGVPSRFSGSGSGTDFTLTISSLQPEDFATYYCQQHYSSPYTFGQGTKVEIK |
| 15.9 fold | 0.9 nM | 1.5 fold | hu1G7.v92 (antibody, human IgG1, V domains shown, human IgG1) VH: EVQLVESGPGLVKPSETLSLTCTVSGFSLTRFGVHWVRQPPGKGLEWLGVIWRGGSTDYNAAFVSRLTISKDNSKNQVSLKLSSVTAADTAVYYCSNHYYGSPDYALDNWGQGTLVTVSS VL: DIQMTQSPSSLSASVGDRVTITCKASQDVSNLVVWFQQKPGKSPKLLIYSGSYRYSGVPSRFSGSGSGTDFTLTISSLQPEDFATYYCQQHYSPPYTFGQGTKVEIK |
| – | 0.7 nM | – | hu1G7.v91 (antibody, human IgG1, V domains shown) VH: EVQLVESGPGLVKPSETLSLTCTVSGFSTTRFGVHWVRQPPGKGLEWLGVIWRGGSTDYNAAFVSRLTISKDNSKNQVSLKLSSVTAADTAVYYCSNHYYGSSDYALDNWGQGTLVTVSS VL: DIQMTQSPSSLSASVGDRVTITCKASQDVSNLVVWFQQKPGKSPKLLIYSGSYRYSGVPSRFSGSGSGTDFTLTISSLQPEDFATYYCQQHYSPPYTFGQGTKVEIK |
| 1.2 fold | 11.7 nM | – | 1G7.v1F (antibody, human IgG1, V domains shown, human IgG1 with the light chain of hu1G7.v1; also called F (hu1G7.v1 heavy chain A61P)) VH: EVQLVESGPGLVKPSETLSLTCTVSGFSLTRFGVHWVRQPPGKGLEWLGVIWRGGSTDYNPAFMSRLTISKDNSKNQVSLKLSSVTAADTAVYYCSNHYYGSSDYALDNWGQGTLVTVSS VL: DIQMTQSPSSLSASVGDRVTITCKASQDVSNIVVWFQQKPGKSPKLLIYSASYRYTGVPSRFSGSGSGTDFTLTISSLQPEDFATYYCQQHYSSPYTFGQGTKVEIK |
| 1 fold | 15 nM | – | 1G7.v1H (antibody, human IgG1, V domains shown, human IgG1 with the light chain of hu1G7.v1; also called H (hu1G7.v1 heavy chain S65D)) VH: EVQLVESGPGLVKPSETLSLTCTVSGFSLTRFGVHWVRQPPGKGLEWLGVIWRGGSTDYNAAFMDRLTISKDNSKNQVSLKLSSVTAADTAVYYCSNHYYGSSDYALDNWGQGTLVTVSS VL: DIQMTQSPSSLSASVGDRVTITCKASQDVSNIVVWFQQKPGKSPKLLIYSASYRYTGVPSRFSGSGSGTDFTLTISSLQPEDFATYYCQQHYSSPYTFGQGTKVEIK |
| 1 fold | 15.3 nM | – | 1G7.v1J (antibody, human IgG1, V domains shown, human IgG1 with the light chain of hu1G7.v1; also called J (hu1G7.v1 heavy chain K81M)) VH: EVQLVESGPGLVKPSETLSLTCTVSGFSLTRFGVHWVRQPPGKGLEWLGVIWRGGSTDYNAAFMSRLTISKDNSKNQVSLMLSSVTAADTAVYYCSNHYYGSSDYALDNWGQGTLVTVSS VL: DIQMTQSPSSLSASVGDRVTITCKASQDVSNIVVWFQQKPGKSPKLLIYSASYRYTGVPSRFSGSGSGTDFTLTISSLQPEDFATYYCQQHYSSPYTFGQGTKVEIK |
| 1 fold | 14.4 nM | – | 1G7.v1G (antibody, human IgG1, V domains shown, human IgG1 with the light chain of hu1G7.v1; also called G (hu1G7.v1 heavy chain M64G)) VH: EVQLVESGPGLVKPSETLSLTCTVSGFSLTRFGVHWVRQPPGKGLEWLGVIWRGGSTDYNAAFGSRLTISKDNSKNQVSLKLSSVTAADTAVYYCSNHYYGSSDYALDNWGQGTLVTVSS VL: DIQMTQSPSSLSASVGDRVTITCKASQDVSNIVVWFQQKPGKSPKLLIYSASYRYTGVPSRFSGSGSGTDFTLTISSLQPEDFATYYCQQHYSSPYTFGQGTKVEIK |
